Source: patent publication US7132252B2, “Methods for detecting the interaction of compounds with cytochrome P450 using optical molecular sensors” (Invitrogen Corporation, priority 1998, dated 2006)
Read-outs that look alike come from different tables or passages of the source. Each block holds one molecule with its values, some of them ahead of it.

Experiments:
CYP3A4 [1] = target: T1, CYP3A4 (Homo sapiens, UniProt P08684)
CYP 2C8 = target: T2, CYP 2C8 (Homo sapiens, UniProt P10632); assay: Kinetic properties of fluorescein-based fluorogenic substrates with CYP 2C8; type: biochemical; details: for v (1.25 uM): turnover rate at 1.25 uM substrate; for v (1.25 uM) / v (10 uM): 100 mM K+ phosphate buffer, pH 7.5; for v (10 uM): turnover rate at 10 uM substrate
T2 sequence (P10632 1-490): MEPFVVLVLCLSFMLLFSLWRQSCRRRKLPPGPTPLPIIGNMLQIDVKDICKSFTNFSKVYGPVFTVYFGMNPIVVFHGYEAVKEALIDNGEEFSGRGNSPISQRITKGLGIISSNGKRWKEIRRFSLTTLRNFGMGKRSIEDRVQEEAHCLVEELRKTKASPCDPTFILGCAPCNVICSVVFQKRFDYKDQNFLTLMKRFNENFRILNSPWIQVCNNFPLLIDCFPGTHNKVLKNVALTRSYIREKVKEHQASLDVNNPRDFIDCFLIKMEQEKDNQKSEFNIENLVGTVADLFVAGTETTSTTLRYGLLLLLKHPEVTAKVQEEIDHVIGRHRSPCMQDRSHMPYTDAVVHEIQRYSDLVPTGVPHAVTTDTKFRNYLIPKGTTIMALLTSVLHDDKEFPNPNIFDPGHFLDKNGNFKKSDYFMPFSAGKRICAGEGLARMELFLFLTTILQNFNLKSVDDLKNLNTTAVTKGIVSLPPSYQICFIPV
Procedure: (§1) Dibenzylfluorescein (DBF) was purchased form Gentest, Woburn, Mass. […] DBF, BOMF and DBOMF were diluted from a stock solution of 2 mM in acetonitrile to a 4×concentration of 80 μM in 100 mM K+ phosphate buffer. Seven 1:2 dilutions were made of each substrate of which 25 μl was added to the appropriate wells. […] The cytochrome P450 isozyme CYP3A4 was diluted to give a 0.5 pmol enzyme per well and added in a volume of 10 μl/well in K+ phosphate, pH 8.0. Enzymatic conversion of the substrate to products was allowed to proceed for 1 hour with fluorescence reads taken every four minutes on a fluorescence microtiter plate reader. The solution was illuminated using an 485/20 nm excitation filter and fluorescence emission was detected through a 530/25 nm the emission filter.
In deviation from the protocol described in Example 32, the phosphate-based buffer (100 mM K+ phosphate, pH 8.0) was replaced throughout the procedure by 100 mM K+ phosphate buffer, pH 7.5. […] Specifically, the substrate dibenzylfluorescein (DBF) (purchased form Gentest, Woburn, Mass.) and the sensor of the present invention DBOMF were tested for activity with CYP 2C8.

CYP3A4 [2] = target: T1, CYP3A4; assay: Kinetic properties of fluorescein-based fluorogenic substrates with CYP 3A4; type: biochemical; details: for K1/2max: concentration at 1/2 maximal velocity for sigmoidal kinetics; for vmax: for sigmoidal kinetics; for v (1.25 uM): turnover rate at 1.25 uM substrate; for v (1.25 uM) / v (10 uM): 100 mM K+ phosphate, pH 8.0; for v (10 uM): turnover rate at 10 uM substrate
Procedure: as §1

CYP3A4 [3] = target: T1, CYP3A4; assay: in vitro; details: pH 8, % inhibition, 10 μM drug; for inhibition at 20 min, 10 µM: Condition A, 20 min pre-incubation without NADP+ (no enzyme turnover), relative to 10 μM clotrimazole control; for inhibition at 40 min, 10 µM: Condition B, 40 min pre-incubation with NADP+ (enzyme turnover), relative to 10 μM ellipticine control
[4] = substrate: CCCCCCCCOCOc1ccc2cc(C#N)c(=O)oc2c1; assay: Kinetic properties of fluorogenic substrates with CYP 2C19; type: biochemical, human; details: other: — = too low to quantify
[5] = substrate: CCOCOc1ccc2cc(C#N)c(=O)oc2c1; assay: as above; type: biochemical, human; details: other: — = too low to quantify
[6] = substrate: CCCCCCCCOCOc1ccc2nc3ccc(=O)cc-3oc2c1; assay: as above; type: biochemical, human; details: other: — = too low to quantify
[7] = substrate: CCOc1ccc2cc(C#N)c(=O)oc2c1; assay: as above; type: biochemical, human; details: other: — = too low to quantify
[8] = substrate: COCOc1ccc2cc(C#N)c(=O)oc2c1; assay: as above; type: biochemical, human; details: other: — = too low to quantify
[9] = substrate: CC(C)Oc1ccc2cc(C#N)c(=O)oc2c1; assay: as above; type: biochemical, human; details: other: — = too low to quantify
[10] = substrate: CCN(CC)Cc1cc(=O)oc2cc(OC)ccc12; assay: as above; type: biochemical, human; details: other: — = too low to quantify
[11] = substrate: N#Cc1cc2ccc(OCc3ccccc3)cc2oc1=O; assay: as above; type: biochemical, human; details: other: — = too low to quantify
[12] = substrate: N#Cc1cc2ccc(OCOCc3ccccc3)cc2oc1=O; assay: as above; type: biochemical, human; details: other: — = too low to quantify
[13] = substrate: CCOCOc1ccc2cc(C#N)c(=O)oc2c1; assay: Kinetic properties of fluorogenic substrates with CYP 1A2; type: biochemical, human
[14] = substrate: CCOc1ccc2cc(C#N)c(=O)oc2c1; assay: as above; type: biochemical, human
[15] = substrate: COc1ccc(COc2ccc3c(C(F)(F)F)cc(=O)oc3c2)cc1; assay: Kinetic properties of fluorogenic substrates with CYP 2D6; type: biochemical, human; details: other: — = too low to quantify
Source text: (§2) (respectively, MFC and MR).

[16] = substrate: COc1ccc(COc2ccc3nc4ccc(=O)cc-4oc3c2)cc1; assay: as above; type: biochemical, human; details: other: — = too low to quantify
Source text: as §2

[17] = substrate: CC(C)Oc1ccc2cc(C#N)c(=O)oc2c1; assay: as above; type: biochemical, human; details: other: — = too low to quantify
Source text: as §2

[18] = substrate: COCOc1ccc2nc3ccc(=O)cc-3oc2c1; assay: as above; type: biochemical, human; details: other: — = too low to quantify
Source text: as §2

T1 sequence (P08684 whole entry): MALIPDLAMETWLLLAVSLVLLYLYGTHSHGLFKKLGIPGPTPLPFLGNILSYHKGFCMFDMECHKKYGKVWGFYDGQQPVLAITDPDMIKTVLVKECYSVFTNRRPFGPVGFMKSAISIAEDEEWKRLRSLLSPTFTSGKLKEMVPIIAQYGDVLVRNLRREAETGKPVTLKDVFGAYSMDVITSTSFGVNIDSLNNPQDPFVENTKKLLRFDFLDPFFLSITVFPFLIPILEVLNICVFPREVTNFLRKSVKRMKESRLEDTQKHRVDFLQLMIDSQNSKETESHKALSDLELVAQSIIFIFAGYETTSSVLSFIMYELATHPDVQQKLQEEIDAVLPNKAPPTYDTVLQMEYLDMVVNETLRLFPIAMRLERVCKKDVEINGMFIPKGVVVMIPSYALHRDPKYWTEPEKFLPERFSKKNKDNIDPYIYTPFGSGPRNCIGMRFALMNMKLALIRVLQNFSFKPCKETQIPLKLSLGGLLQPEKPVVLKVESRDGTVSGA

Molecule: CCCCc1oc2ccccc2c1C(=O)c1cc(I)c(OCCN(CC)CC)c(I)c1 [Amiodarone]
metabolism-dependent inhibitory activity against the CYP3A4 isozyme (CYP3A4 [1]): at least partial metabolism-dependent inhibitory activity

type of kinetics (CYP 2C8): MichaelisMenten
v (1.25 uM) (CYP 2C8): 0.16 min⁻¹
v (10 uM) (CYP 2C8): 0.37 min⁻¹
type of kinetics (CYP3A4 [2]): sigmoidal
K1/2max (CYP3A4 [2]): 0.80 µM
vmax (CYP3A4 [2]): 4.30 min⁻¹
v (1.25 uM) (CYP3A4 [2]): 3.27 min⁻¹
v (10 uM) (CYP3A4 [2]): 4.40 min⁻¹
Molecule: O=C(OCc1ccccc1)c1ccccc1-c1c2ccc(=O)cc-2oc2cc(OCc3ccccc3)ccc12 [DBF, Dibenzylfluorescein, reference compound]

Molecule: COc1ccc(Cc2nccc3cc(OC)c(OC)cc23)cc1OC [Papaverine]
inhibition at 20 min, 10 µM (CYP3A4 [3]; substrate BOMCC): 34%
inhibition at 40 min, 10 µM (CYP3A4 [3]; substrate BOMCC): 99%
inhibition at 20 min, 10 µM (CYP3A4 [3]; substrate BOMR): 69%
inhibition at 40 min, 10 µM (CYP3A4 [3]; substrate BOMR): 92%
inhibition at 20 min, 10 µM (CYP3A4 [3]; substrate DBOMF): 48%
inhibition at 40 min, 10 µM (CYP3A4 [3]; substrate DBOMF): 90%
metabolism-dependent inhibitory activity against the CYP3A4 isozyme (CYP3A4 [1]; indicated by data for DBOMF): at least partial metabolism-dependent inhibitory activity

Molecule: Cc1c2ccncc2c(C)c2c1[nH]c1ccccc12 [Ellipticine]
inhibition at 20 min, 10 µM (CYP3A4 [3]; substrate BOMCC): 92%
inhibition at 40 min, 10 µM (CYP3A4 [3]; substrate BOMCC): 100%
inhibition at 20 min, 10 µM (CYP3A4 [3]; substrate BOMR): 97%
inhibition at 40 min, 10 µM (CYP3A4 [3]; substrate BOMR): 100%
inhibition at 20 min, 10 µM (CYP3A4 [3]; substrate DBOMF): 40%
inhibition at 40 min, 10 µM (CYP3A4 [3]; substrate DBOMF): 100%
metabolism-dependent inhibitory activity against the CYP3A4 isozyme (CYP3A4 [1]; indicated by data for DBOMF): at least partial metabolism-dependent inhibitory activity

type of kinetics (CYP 2C8): MichaelisMenten
v (1.25 uM) (CYP 2C8): 0.55 min⁻¹
v (10 uM) (CYP 2C8): 1.54 min⁻¹
type of kinetics (CYP3A4 [2]): sigmoidal
K1/2max (CYP3A4 [2]): 1.50 µM
vmax (CYP3A4 [2]): 16.00 min⁻¹
v (1.25 uM) (CYP3A4 [2]): 6.00 min⁻¹
v (10 uM) (CYP3A4 [2]): 15.50 min⁻¹
Molecule: O=C(OCOCc1ccccc1)c1ccccc1-c1c2ccc(=O)cc-2oc2cc(OCOCc3ccccc3)ccc12 [DBOMF, Dibenzyloxymethylfluorescein]

B1: CYP 2C19 (Homo sapiens) (protein)
chain: MDPFVVLVLCLSCLLLLSIWRQSSGRGKLPPGPTPLPVIGNILQIDIKDVSKSLTNLSKIYGPVFTLYFGLERMVVLHGYEVVKEALIDLGEEFSGRGHFPLAERANRGFGIVFSNGKRWKEIRRFSLMTLRNFGMGKRSIEDRVQEEARCLVEELRKTKASPCDPTFILGCAPCNVICSIIFQKRFDYKDQQFLNLMEKLNENIRIVSTPWIQICNNFPTIIDYFPGTHNKLLKNLAFMESDILEKVKEHQESMDINNPRDFIDCFLIKMEKEKQNQQSEFTIENLVITAADLLGAGTETTSTTLRYALLLLLKHPEVTAKVQEEIERVIGRNRSPCMQDRGHMPYTDAVVHEVQRYIDLIPTSLPHAVTCDVKFRNYLIPKGTTILTSLTSVLHDNKEFPNPEMFDPRHFLDEGGNFKKSNYFMPFSAGKRICVGEGLARMELFLFLTFILQNFNLKSLIDPKDLDTTPVVNGFASVPPFYQLCFIPV
Km [4]: 6.9 µM
kcat [4]: 0.0283 s⁻¹
kcat/Km [4]: 4106 M⁻¹ s⁻¹
Km [5]: 16.6 µM
kcat [5]: 0.095 s⁻¹
kcat/Km [5]: 5720 M⁻¹ s⁻¹
Km [6]: 0.7 µM
kcat [6]: 0.00283 s⁻¹
kcat/Km [6]: 4048 M⁻¹ s⁻¹
Km [7]: 41.0 µM
kcat [7]: 0.0283 s⁻¹
kcat/Km [7]: 671 M⁻¹ s⁻¹
Km [8]: 3.2 µM
kcat [8]: 0.00833 s⁻¹
kcat/Km [8]: 2060 M⁻¹ s⁻¹
Km [9]: 57.2 µM
kcat [9]: 0.0325 s⁻¹
kcat/Km [9]: 568 M⁻¹ s⁻¹
Km [10]: 8.5 µM
kcat [10]: 0.0067 s⁻¹
kcat/Km [10]: 784 M⁻¹ s⁻¹
Km [11]: 6.4 µM
kcat [11]: 0.00167 s⁻¹
kcat/Km [11]: 234 M⁻¹ s⁻¹
Km [12]: 14.0 µM
kcat [12]: 0.0317 s⁻¹
kcat/Km [12]: 2260 M⁻¹ s⁻¹

B2: CYP 1A2 (Homo sapiens) (protein)
chain: MALSQSVPFSATELLLASAIFCLVFWVLKGLRPRVPKGLKSPPEPWGWPLLGHVLTLGKNPHLALSRMSQRYGDVLQIRIGSTPVLVLSRLDTIRQALVRQGDDFKGRPDLYTSTLITDGQSLTFSTDSGPVWAARRRLAQNALNTFSIASDPASSSSCYLEEHVSKEAKALISRLQELMAGPGHFDPYNQVVVSVANVIGAMCFGQHFPESSDEMLSLVKNTHEFVETASSGNPLDFFPILRYLPNPALQRFKAFNQRFLWFLQKTVQEHYQDFDKNSVRDITGALFKHSKKGPRASGNLIPQEKIVNLVNDIFGAGFDTVTTAISWSLMYLVTKPEIQRKIQKELDTVIGRERRPRLSDRPQLPYLEAFILETFRHSSFLPFTIPHSTTRDTTLNGFYIPKKCCVFVNQWQVNHDPELWEDPSEFRPERFLTADGTAINKPLSEKMMLFGMGKRRCIGEVLAKWEIFLFLAILLQQLEFSVPPGVKVDLTPIYGLTMKHARCEHVQARLRFSIN
Km [13]: 11.0 µM
kcat [13]: 0.35 s⁻¹
kcat/Km [13]: 31800 M⁻¹ s⁻¹
Km [14]: 26.0 µM
kcat [14]: 0.733 s⁻¹
kcat/Km [14]: 28200 M⁻¹ s⁻¹

B3: CYP 2D6 (Homo sapiens) (protein)
chain: MGLEALVPLAVIVAIFLLLVDLMHRRQRWAARYPPGPLPLPGLGNLLHVDFQNTPYCFDQLRRRFGDVFSLQLAWTPVVVLNGLAAVREALVTHGEDTADRPPVPITQILGFGPRSQGVFLARYGPAWREQRRFSVSTLRNLGLGKKSLEQWVTEEAACLCAAFANHSGRPFRPNGLLDKAVSNVIASLTCGRRFEYDDPRFLRLLDLAQEGLKEESGFLREVLNAVPVLLHIPALAGKVLRFQKAFLTQLDELLTEHRMTWDPAQPPRDLTEAFLAEMEKAKGNPESSFNDENLRIVVADLFSAGMVTTSTTLAWGLLLMILHPDVQRRVQQEIDDVIGQVRRPEMGDQAHMPYTTAVIHEVQRFGDIVPLGVTHMTSRDIEVQGFRIPKGTTLITNLSSVLKDEAVWEKPFRFHPEHFLDAQGHFVKPEAFLPFSAGRRACLGEPLARMELFLFFTSLLQHFSFSVPTGQPRPSHHGVFAFLVSPSPYELCAVPR
Km [15]: 5.0 µM
kcat [15]: 0.01 s⁻¹
kcat/Km [15]: 2067 M⁻¹ s⁻¹
Km [16]: 3.1 µM
kcat [16]: 0.000817 s⁻¹
kcat/Km [16]: 263 M⁻¹ s⁻¹
Km [17]: 18 µM
kcat [17]: 0.0017 s⁻¹
kcat/Km [17]: 93 M⁻¹ s⁻¹
Km [18]: 8 µM
kcat [18]: 0.00567 s⁻¹
kcat/Km [18]: 708 M⁻¹ s⁻¹
